Measurements from the DeepSol protein solubility set.

Assay: soluble on expression in E. coli; label from the status in PepcDB or PDB records
In the case of “GLIVDTRDVEERVHVMRKTKLAPTVAHGVFNPEFGPAALSNKDPRLNEGVVLDEVIFSKHKGDTKMSAEDKALFRRCAADYASRLHSVLGTANAPLSIYEAIKGVDGLDAMEPDTAPGLPWALQGKRRGALIDFENGTVGPEVEAALKLMEKREYKFACQTFLKDEIRPMEKVRAGKTRIVDVLPVEHILYTRMMIGRFCAQMHSNNGPQIGSAVGCNPDVDWQRFGTHFAQYRNVWDVDYSAFDANHCSDAMNIMFEEVFRTEFGFHPNAEWILKTLVNTEHAYENKRITVEGGMPSGCSATSIINTILNNIYVLYALRRHYEGVELDTYTMISYGDDIVVASDYDLDFEALKPHFKSLGQTITPADKSDKGFVLGHSITDVTFLKRHFHMDYGTGFYKPVMASKTLEAILSFARRGTIQEKLISVAGLAVHSGPDEYRRLFEPFQGLFEIPSYRSLYLRWVNAVCGDAAALE”, the “soluble on expression in E. coli” value is reported as “soluble”.
For “GLKEHDFNPEEAEETKQVSWKLVTEYAMETKCDDVLLLLGMYLEFQYSFEMCLKCIKKEQPSHYKYHEKHYANAAIFADSKNQKTICQQAVDTVLAKKRVDSLQLTREQMLTNRFNDLLDRMDIMFGSTGSADIEEWMAGVAWLHCLLPKMDSVVYDFLKCMVYNIPKKRYWLFKGPIDSGKTTLAAALLELCGGKALNVNLPLDRLNFELGVAIDQFLVVFEDVKGTGGESRDLPSGQGINNLDNLRDYLDGSVKVNLEKKHLNKRTQIFPPGIVTMNEYSVPKTLQARFVKQIDFRPKDYLKHCLERSEFLLEKRIIQSGIALLLMLIWYRPVAEFAQSIQSRIVEWKERLDKEFSLSVYQKMKFNVAMGIGVLD”, the “soluble on expression in E. coli” value was “soluble”.
With “GMDELELRIRKAEKLVQDAKKEFEMGLYERCCSTAYYAMFHAAKAMLLGYGRDSKTHRGTIYLIWECREELGLSDDDCSKLSRAFDLREESDYGIYKEVSKDLAIKILKDAEIFVQKAKNAVNKNR” the “soluble on expression in E. coli” value was “soluble”.
For “GMDETPIFKIKKLTIAENDRSEYIRYAEKNMHDSIPAEEGTLLIGSGHDDAHGEDNYEIEVFRNKGAEDLHIAGSHADDFVETVNKIATKQKVIDLHPEVITTKAQRALNSYADNFVMRLIKVEVKDADAEKFSHAVKKEMTTSMASEPGMEIMMSGTNIDNPNEWYFIEVYANDEAYDIHVKTPHYKEYIEETDGMVKSRDVKTLVRDTLATQGAIVLD”, the “soluble on expression in E. coli” value was “soluble”.
In the case of “GMDNVAEYRKLIKQVLTEYDNLSRQSPETNYETCLVFDENHDNYLWLAVDWQGSKRIKYTYVHIRIKNEKIYIEEDYTEEGIATELMRLGVTNNDIVLAFHPPDVRKFTDFATA”, the “soluble on expression in E. coli” value is reported as “soluble”.
For “GMDVLQKEIDEVYATHPTAHEALDNGIVEQHQQFVRSLTEVNGGCAVISDLSNRKSYVTVHPWANFLGLTPEEAALSVIDSMDEDCIYRRIHPEDLVEKRLMEYKFFQKTFSMSPGERLKYRGRCRLRMMNEKGVYQYIDNLVQIMQNTPAGNVWLIFCLYSLSADQRPEQGIYATITQMERGEVETLSLSEEHRNILSEREKEILRCIRKGLSSKEIAATLYISVNTVNRHRQNILEKLSVGNSIEACRAAELMKLL”, the “soluble on expression in E. coli” value was “soluble”.
In the case of “GMDYNQTVLSHLQKFWKHHDIKGFTWTLGRIVEELPDFQVFQVIPNHEDEPWVYVSSGIGQFLGQEFFIISPFETPEHIETLAMLASASMHYPDQFQLGKTVNIGRPWVEQSSFRHFLISLPYPYGQELEYMDNVRFFWLLPITQTERLFLNTHSVEELETKFDEAGIDYLDINRASTVWQAG”, the “soluble on expression in E. coli” value is reported as “soluble”.
In the case of “GMEKKSSYKTVLLGESSVGKSSIVLRLTKDTFHENTNTTIGASFCTYVVNLNDINIKNNSNNEKNNNINSINDDNNVIITNQHNNYNENLCNIKFDIWDTAGQERYASIVPLYYRGATCAIVVFDISNSNTLDRAKTWVNQLKISSNYIIILVANKIDKNKFQVDILEVQKYAQDNNLLFIQTSAKTGTNIKNIFYMLAEEIYKNIIN”, the “soluble on expression in E. coli” value is reported as “soluble”.
For “GMELPVVVQQALGDNAPGVSFRSVSQIDTGHLLRMVLLSDDQGNLQAICRRNDMLDLEALNKRLGRDLRMMQRREQVRVRQKAGLQELPALPSLTGWPTVVDRRVDELEAVALELGEQDLGLMMPAEDFRQLTAKAARHDFAVDTANISVNLDNHAADRDQLHSAIKRFTGLRIQQRLEDTLELPPLPETAQRIIHLRVNPNAVMGDLVDVVESDPSLAAQVVSWASSSFYAAAGRVHSVHDAVSRVLGFDLVMNLAMGLALGRALKHPQDHPDGYVDYWQQAIWQAQSAGILASMMPRGQRPLFGLAYLAGLLHNFGHLVLAQVFPPHFKLVCRSLEVSPHIDSSVIEHYLLGITREQIAAQLMENWGMPDEVTLAIRYQKNPAYDGPHNVYARLLWLGRQLLTERGVALGAGESATQAVYDELGLDRELVQEQFDELVRRKDSIMAMAGMMSQGG”, the “soluble on expression in E. coli” value was “soluble”.
